# Measurements as given in the supplement of paper PMC10724198.
# ± gives the standard deviation of the averaged measurements.
# Tested on: Saccharomyces cerevisiae
# Test: protein stability index of tFT-peptide fusion (C-terminal peptide) (PSI (0-1 scale)); higher = more stable (slower turnover)
# Details: genetic background: wild type; temperature: 30 C
# 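Note: PSI is a weighted mean of sequencing reads over stability bins, variants kept only with over 10 reads, mCherry proximal and sfGFP distal, peptide attached via GGGS linker.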
row,Sequence,protein stability index
1,PPYAPPDHPPFR,0.699 ± 0.03
2,PPYDSSYGILLR,0.7666 ± 0.0053
3,PPYIMCPFTPGG,0.632 ± 0.024
4,PPYPPPHASPAP,0.693 ± 0.039
5,PPYPPPRPKPPR,0.699 ± 0.012
6,PPYSPSPRDPFA,0.713 ± 0.047
7,PQIIFVSRASYL,0.681 ± 0.015
8,PQPNSSEPTSQK,0.722 ± 0.011
9,PQTAGTHRARVN,0.698 ± 0.026
10,PQTPQTSTQAPG,0.673 ± 0.01
11,PQVLSPPLSTSR,0.728 ± 0.008
12,PQYLPLLPSPSP,0.632 ± 0.048
13,PRALLCLLSRPC,0.722 ± 0.1
14,PRAYPSNLPPSP,0.721 ± 0.037
15,PRDLRVVRLTSA,0.63 ± 0.022
16,PRDSRPLPAYSL,0.591 ± 0.028
17,PRFGPPQLPAKA,0.754 ± 0.062
18,PRFPYGPFDFSI,0.669 ± 0.046
19,PRGALMKGYKPG,0.663 ± 0.1
20,PRGLGYHGALVL,0.571
21,PRGPPPPAPPPT,0.689 ± 0.0075
22,PRGRSRPRCVIR,0.684 ± 0.13
23,PRIGRPQSLTFH,0.621 ± 0.011
24,PRIPHPPRPRPP,0.669 ± 0.024
25,PRLGFFPFPSGP,0.709 ± 0.03
26,PRLLPPLGFLTF,0.764 ± 0.075

row,Sequence,protein stability index
1,PRLPLPPPPLPL,0.683 ± 0.026
2,PRLPYPSLFPCT,0.678 ± 0.056
3,PRPAAPSPPPLP,0.588 ± 0.014
4,PRPAQDAEPIQP,0.646 ± 0.098
5,PRPGGHLFLVFS,0.679 ± 0.033
6,PRPKNQMAIYRE,0.708 ± 0.07
7,PRPLPLPPLALP,0.696 ± 0.027
8,PRPLTPPAPPHP,0.748 ± 0.041
9,PRPPNPRPPPPP,0.729 ± 0.071
10,PRPPPPPASVCR,0.6579 ± 0.00069
11,PRPPPRRPDFGL,0.825 ± 0.16
12,PRPRRSSLPFPP,0.818 ± 0.073
13,PRPSPLSSLSVS,0.7206 ± 0.0064
14,PRRFPFRHATSP,0.635 ± 0.084
15,PRRLAPPPPPSP,0.744 ± 0.012
16,PRRPHDPFPAAP,0.686 ± 0.017
17,PRRPPPLPPASF,0.713 ± 0.047
18,PRRSNPQPTHIR,0.708 ± 0.038
19,PRSLPLDHPAPC,0.709 ± 0.085
20,PRSPLRYPPHCP,0.691 ± 0.035
21,PRSPPPSSSTPD,0.688 ± 0.036
22,PRSPPRSLFFPC,0.648 ± 0.047
23,PRSRSGVAQGPE,0.6607 ± 0.0039
24,PRSSVLPPCPSL,0.707 ± 0.025
25,PRSTFLRRHLRV,0.6184 ± 0.0037
26,PRTGPLPPLTPL,0.679 ± 0.016

row,Sequence,protein stability index
1,PRTSSPPRPFRF,0.624 ± 0.022
2,PRVLVVSAVNTV,0.695 ± 0.02
3,PRYAEFVGRFEV,0.6508 ± 0.0064
4,PSAFSPPARISL,0.761 ± 0.066
5,PSAGSPAPLLHP,0.705 ± 0.064
6,PSALLGTCRCVQ,0.706 ± 0.028
7,PSAPPPSPLGRT,0.738 ± 0.059
8,PSAQPPPRPTRP,0.6878 ± 0.0036
9,PSCLPPPAHLEL,0.705 ± 0.043
10,PSFLPPAPLGIS,0.741 ± 0.038
11,PSFLSPCPPFLS,0.747 ± 0.039
12,PSFRTGLPPSDP,0.681 ± 0.038
13,PSGLVSPSCLGC,0.68 ± 0.022
14,PSGRRRWACARG,0.694 ± 0.0097
15,PSHLHERIRPAR,0.726 ± 0.16
16,PSHLNAPTTAPP,0.701 ± 0.038
17,PSHVFSDCIAPP,0.696 ± 0.011
18,PSILRGVLSAPK,0.695 ± 0.04
19,PSKRKRATPSKR,0.647 ± 0.021
20,PSLCFLPPPPSP,0.686 ± 0.0076
21,PSLFHHWSVLSP,0.785 ± 0.1
22,PSLHPLSPSPPA,0.686 ± 0.041
23,PSLHPNHLAPPP,0.622 ± 0.046
24,PSLLLPPYSSAP,0.743 ± 0.021
25,PSLPDSALRHSL,0.70673 ± 9.8e-05
26,PSLPPPFPPLRP,0.7044 ± 0.0013

row,Sequence,protein stability index
1,PSLPPPSPSPPP,0.666 ± 0.05
2,PSLSPVEVPLSR,0.759 ± 0.046
3,PSLVGRVWLEFV,0.691 ± 0.061
4,PSPALGPFLAYR,0.695 ± 0.0077
5,PSPAPRPFAPLP,0.69 ± 0.01
6,PSPASPPPPPLP,0.714 ± 0.2
7,PSPLAPPPRLPV,0.733 ± 0.049
8,PSPLFSGSFLFF,0.716 ± 0.029
9,PSPLPLLPPPRP,0.645 ± 0.037
10,PSPLPPPLPPPV,0.675 ± 0.043
11,PSPLPSPLLTTL,0.6816 ± 0.0062
12,PSPPFPPPSPPP,0.687 ± 0.02
13,PSPPHLCPSPFA,0.7518 ± 0.0015
14,PSPPHPPIPTSP,0.696 ± 0.015
15,PSPPIPALSFST,0.684 ± 0.03
16,PSPPLPHLLLLP,0.6929 ± 0.0035
17,PSPPPPPRSFLH,0.649 ± 0.066
18,PSPPPPSRLLPP,0.689 ± 0.025
19,PSPPPSISIPPS,0.73 ± 0.17
20,PSPPPSPPSPPS,0.708 ± 0.02
21,PSPPQLPAAPSP,0.779 ± 0.086
22,PSPPRPRLPTAV,0.67026 ± 0.00045
23,PSPPRPSGVPVT,0.674 ± 0.017
24,PSPPVMSPEVAC,0.627 ± 0.038
25,PSPQNIPDPISP,0.673 ± 0.04
26,PSPRASLPRLPP,0.597 ± 0.074

row,Sequence,protein stability index
1,PSPRPFPPPLPP,0.6262 ± 0.0022
2,PSPRPSPRPSPR,0.692 ± 0.062
3,PSPSAGPAPTPL,0.65 ± 0.084
4,PSPSWYGRRLLG,0.659 ± 0.027
5,PSPTPPPPRSPS,0.721 ± 0.029
6,PSQTTRSPPPPP,0.708 ± 0.015
7,PSQWLPSRSRTA,0.733 ± 0.052
8,PSRLAPPSPSIP,0.694 ± 0.051
9,PSRPSPSPHLPL,0.849 ± 0.011
10,PSSLRLPLCSPL,0.7039 ± 0.004
11,PSSLSSLPPPSP,0.669 ± 0.024
12,PSSPALIPCRLV,0.61 ± 0.027
13,PSSPLSPAPPPP,0.659 ± 0.015
14,PSTLLTFAISIP,0.666 ± 0.045
15,PSTPLPHLTRPS,0.677 ± 0.07
16,PSVPRLPGLSLR,0.629 ± 0.053
17,PTAPVLRPPASP,0.7 ± 0.011
18,PTARIPGLYLFP,0.695 ± 0.049
19,PTHDPPSLHSPA,0.604 ± 0.027
20,PTITPPPPPPPP,0.625 ± 0.0067
21,PTKSQNEKTKAE,0.679 ± 0.037
22,PTLDATLSVASG,0.667 ± 0.036
23,PTLIPPPPPPGP,0.718 ± 0.059
24,PTLLRRVPPVPL,0.677 ± 0.087
25,PTLPPHSLRPPP,0.692 ± 0.018
26,PTPAPLPPPSPP,0.592 ± 0.024

row,Sequence,protein stability index
1,PTPIPLGLHSLS,0.705 ± 0.048
2,PTPLPPPPPRPD,0.715 ± 0.063
3,PTPLPPRSPPPQ,0.754 ± 0.045
4,PTPPLPYRPRSP,0.674 ± 0.014
5,PTPRGTPCPDTM,0.66 ± 0.065
6,PTPTTNPTHSAP,0.695 ± 0.048
7,PTPTTSPASRQN,0.682 ± 0.023
8,PTREGSDGMVGN,0.702 ± 0.021
9,PTRRFVFCDVDK,0.717 ± 0.077
10,PTRSEGYSVVYM,0.693 ± 0.043
11,PTSPHPPPCSPP,0.724 ± 0.22
12,PTTPPTILLLPL,0.658 ± 0.031
13,PTTVSRPPPPSP,0.711 ± 0.009
14,PTVLFQFSESWP,0.668 ± 0.044
15,PTYDSLPLLDNC,0.673 ± 0.014
16,PTYRGAPCLPPF,0.728 ± 0.013
17,PVFLEFESWCVC,0.685 ± 0.044
18,PVFLSCCLCLLS,0.78 ± 0.099
19,PVICFTSYPDRQ,0.7 ± 0.098
20,PVLPLPSLPSPS,0.675 ± 0.0093
21,PVLRLPHDETAN,0.705 ± 0.035
22,PVLYWHSYRLCR,0.65 ± 0.008
23,PVPLLHPRSLSL,0.781 ± 0.074
24,PVSCMAWGRLVL,0.667 ± 0.041
25,PVSPLFWSAKRL,0.71061 ± 0.00011
26,PVSPSIHPPSYP,0.759 ± 0.023

row,Sequence,protein stability index
1,PVSSLPQTLLMF,0.758 ± 0.22
2,PVVGNPHRIFGV,0.714 ± 0.028
3,PVVKGAAGSAQR,0.725 ± 0.074
4,PWDPDTPIPPRP,0.716 ± 0.012
5,PWRLFVTSGSPA,0.714 ± 0.048
6,PWVGRFVRLGVR,0.676 ± 0.058
7,PYIPSSVSLRQD,0.712 ± 0.0092
8,PYPNAQRIEIKF,0.651 ± 0.026
9,PYRFRDRTYEEL,0.673 ± 0.022
10,PYSSVPLAPPRP,0.736 ± 0.043
11,QAGKPAIHHAAL,0.682 ± 0.0034
12,QAVTSVGTTNIV,0.689 ± 0.023
13,QCAIRQCCLVSL,0.574 ± 0.064
14,QCGAWLKFTCHV,0.636 ± 0.058
15,QCRSLVGGCCVW,0.693 ± 0.031
16,QCSVFSSPPRAL,0.723 ± 0.1
17,QCVSGLGPVVRT,0.7329 ± 0.0029
18,QDERPLAPRTRW,0.7251 ± 0.0032
19,QDLIVENGSVSG,0.655 ± 0.009
20,QESPERRGVPPF,0.674 ± 0.047
21,QFSSPPLPLLSP,0.629 ± 0.035
22,QGCSRHIRTGKK,0.5741 ± 0.0037
23,QGGRGGRHVTDI,0.688 ± 0.022
24,QGIKKKKEKERR,0.768 ± 0.14
25,QGQAAHEHFHGR,0.654 ± 0.042
26,QGREREAGAEVM,0.699 ± 0.03

row,Sequence,protein stability index
1,QGRTWGGCWGRG,0.649 ± 0.012
2,QGSKQKIISAAT,0.6807 ± 0.0064
3,QIERSRIAYLST,0.6933 ± 0.0027
4,QIQRSGGGGHCG,0.739 ± 0.0028
5,QITSHRVISRLV,0.546 ± 0.037
6,QKIREKKKRKKL,0.622 ± 0.015
7,QKKIIRKRKKNR,0.666 ± 0.012
8,QKKKKKKVQKKQ,0.6702 ± 0.0054
9,QKKKKLAYVGKR,0.659 ± 0.012
10,QKKKKNKKQKTE,0.599 ± 0.021
11,QKNETNQWKGKK,0.672 ± 0.032
12,QKQINQKKRTMK,0.649 ± 0.055
13,QKREEPQNKSQD,0.72 ± 0.017
14,QKSCHIADGREL,0.671 ± 0.022
15,QLEGQGISFRVL,0.785 ± 0.065
16,QLENQRGWDRKI,0.656 ± 0.038
17,QLHGWMTRNPLL,0.746 ± 0.051
18,QLRPPHRTLHLP,0.698 ± 0.028
19,QLSTSGLTTTAW,0.707 ± 0.029
20,QLYGHNRRNQGL,0.611 ± 0.046
